Reference: patent US20260258115A1 (MAPP BIOPHARMACEUTICAL, published 2026)

B1: ADI-41836 (antibody, V domains shown)
VH: EVQLLESGAEVKKPGASVKVSCRASGYTFTSNTLHWVRQAPGQGLEWMGWINADNGNTRYSQKFQGRVTITRDTSANTAYMELSSLISEDTAVYYCAREWSGFWSGLNWFEPWGQGTLVTVSS
VL: QSVLTQPPSVSGAPGQRVTISCTGSSSNIGSGNDVHWYQQFPGTAPKVLIYVNSIRPSGVSDRFSGSKSGTSASLAITGLRAEDEADYYCQSYDSSLNGVAFGGGTKLTVL
B2: ADI-41837 (antibody, V domains shown)
VH: QVQLVQSGAEVKKPGASVKVSCKASGYTFTSYGISWVRQAPGQGLEWMGWISAYSGDTDYAQKLQGRVTMTTDTATSTAYMELRSLRSDDTAVYYCARDAHCSSTNCYIDLGGAPVDYWGQGTLVTVSS
VL: DIVLTQTPLSLSVTLGQPASISCRSSQSLVYIDGYTYLNWFQQRPGQSPRRLIYKVSNRDSGVPDRFSGSGSGTDFTLKISRVEAEDVGVYYCMQGAHWPWTFGQGTKVEIK
notes: also called Ab 937; Antibody Number 937
B3: ADI-41488 (antibody, V domains shown)
VH: EVQLVESGPGLVKPSETLSLTCTVSGGSINSDYWNWIRQTPGKGLEWIGYIFYSGNTNYNPSLKSRVTISIDTSKKKFSLQVTSVTAADTAVYYCARMGTLKFDFDNWGQGTLVTVSS
VL: QSALTQPRSVSGSPGQSVTIPCTGTSSDVGAYKYVSWYQQHPGKAPKLIIYDVTKRPSGVPNRFSGSKSGNTASLTISGLQAEDEADYYCCSYAGTHTYWVFGGGTKVTVL
notes: also called Ab 769; Antibody Number 769
B4: ADI-41479 (antibody, V domains shown)
VH: QVQLVQSGAEVKKPGESLKISCKGSGYSFISYWIGWVRQMPGKGLEWMGIIYPADSDTRYSPSFQGQVTISVDKSISTAYLQWSSLKASDTGMYYCVRYGVGGTAPRYWGQGTTVTVSS
VL: NFMLTQPHSVSESPGKTVTISCTGSSGSIASNYVHWYQQRPGSAPTTVIYEDNQRPSGVPDRFSGSIDSSSNSASLTISGLKTEDEADYYCQSYDISNLWVFGGGTKLTVL
B5: ADI-41690 (antibody, V domains shown)
VH: QVQLVQSGAEVKKPGESLRISCKGSGYSFSSHWIGWVRQKPGKGLEWMGIIYPGDSDTRYSPSFQGHVTISADKSISTAYLRWSSLKASDTAIYYCAKRMVGDYYGMNLWGQGTTVTVSS
VL: EIVMTQSPSSLSASVGDRVTITCQASQDISNRLNWYQQKPGKAPKLLIYDASNLETGVPSRFSGSGSGTDFTFTISSLQPEDIATYFCQQYDYLLWFTFGPGTKVDIK
notes: also called Ab 893; Antibody Number 893
B6: ADI-41544 (antibody, V domains shown)
VH: QVQLVQSGAEVKKPGESLKISCKGSGYSFTNYWIGWVRQMPGKGLEWMGIIFPADSDTRYSPSFQGQVTISADKSVSTAYLQWTSLKASDTAIYYCARLGVAAAGGYWGQGTLVTVSS
VL: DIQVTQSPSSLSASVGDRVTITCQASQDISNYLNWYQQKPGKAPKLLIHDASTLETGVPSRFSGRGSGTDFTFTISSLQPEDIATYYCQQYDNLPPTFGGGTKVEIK
notes: also called Ab 816; Antibody Number 816
B7: ADI-41525 (antibody, V domains shown)
VH: QVQLVQSGAEMKKPGSSVKVSCKASGRTFKYFALNWMRRAPGHGLEWIGGDIPISGSTNYAQKFQGRVTITADESASTAYMEVSRLRSDDTAVYYCASLHYDVSTGFSDAFDIWGQGTMVTVSS
VL: QSVLTQPASVSGSPGQSITISCTGTSSDVGAYNYVSWYQHHPGKAPKLMIFDVSNRPSGVSNRFSGSKSGNTASLTISGLQAEDEADYYCSSYRSTFSYVFGTGTKVTVL
notes: also called Ab 797; Antibody Number 797
B8: ADI-43641 (antibody, V domains shown)
VH: EVQLVESGGGLVKPGGSLRLSCAASGFTFSDYYMSWIRQAPGKGLEWVSYISSSSSYTNYADSVKGRFTISRDNAKNSLYLQMNSLRAEDTAVYYCARDFSGQWLVLGYGMDVWGQGTTVTVSS
VL: QSVVTQPPSVSGAPGQRVTISCTGSSSNIGAGYDVHWYQQLPGTAPKLLIYGNSNRPSGVPDRFSGSKSGTSASLAITGLQAEDEADYYCQSYDSSLSGPVFGGGTKLTVL
notes: also called Ab 946; Antibody Number 946
B9: ADI-43642 (antibody, V domains shown)
VH: EVQLLESGGGLVKPGGSLRLSCAASGFTFSSYSMNWVRQAPGKGLEWVSSISSSSSYIYYADSVKGRFTISRDNAKNSLYLQMNSLRAEDTAVYYCARDGADSSYYYYMDVWGKGTTVTVSS
VL: QAVVTQPPSVSGAPGQRVTISCTGSSSNIGAGYDVHWYQQLPGTAPKLLIYGNSNRPSGVPDRFSGSKSGTSASLAITGLQAEDEADYYCQSYDSSLSGSVFGGGTKLTVL
notes: also called Ab 947; Antibody Number 947
B10: ADI-41838 (antibody, V domains shown)
VH: EVQLLESGGGVVQPGRSLRLSCAASEFTFRSYAMHWVRQAPGMGLEWVAVTPYDGISKYYADSVKGRFTISRDNSKNTLYLQMNSLRPEDTAVYYCARGFPEPITSWPGYFYAMDVWGQGTTVTVSS
VL: QSALTQPASVSGSPGQSITISCTGTTSDVGVYNYVSWYQQHPGKAPKLMIYDVSNRPSGVSNRFSGSKSGNTASLTISGLQAEDEADYYCSSYTNSDTPVVFGGGTKLTVL
notes: also called Ab 938; Antibody Number 938
B11: ADI-41462 (antibody, V domains shown)
VH: QVQLQQWGAGLVKPSETLSLSCDVYGGSFSGYYWTWIRQPPGKGLEWIGEINHSGRTNYNPSLKNRVTISVDTSKKQFSLKLSSVTAADTAVYFCARAPYYDIVTDYNITTAYFYGMDVWGQGTTVTVSS
VL: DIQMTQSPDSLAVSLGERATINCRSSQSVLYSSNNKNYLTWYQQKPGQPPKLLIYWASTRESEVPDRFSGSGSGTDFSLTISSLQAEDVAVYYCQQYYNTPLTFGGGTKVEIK
B12: ADI-41839 (antibody, V domains shown)
VH: EVQLLESGGGVVQPGGSLRLSCVASGFTFSAYGMHWVRQAPGKGPEWVAMTRSDGNKIYYADSVKGRFTISRDDSKNTLYLEMNSLRPDDTAVYFCAKEVGYGGNSLHYWGQGTLVTVSS
VL: SYELIQPPSVSVAPGQTAKITCGGNNIGSKSVHWYQQKPGQAPVLVVFDDSDRPSGIPERFSGSNSGNTATLTISRVEAGDEADYYCQVWDFSSDLWVFGGGTKLTVL
notes: also called Ab 939; Antibody Number 939
B13: ADI-41477 (antibody, V domains shown)
VH: QVQLVQSGAEVKKPGASVRVSCKASGYPFISYYIHWVRQAPGQGLEWMGMINTNGGSTHYAQKFQGRVTMTRDTSTTTIYMELSRLKSEDTAYYFCARDNTETVLHGFWSGYGSYLDYWGQGTLVTVSS
VL: EIVLTQSPGTLSLSPGGRATLSCRASQSVTSSYLAWYQQRPGQAPRLLIYGASSRAAGIPDRFSGSGSGTDFTLTISRLEPEDFAVYYCQQYGSAPLTFGGGTKLEIK
notes: also called Ab 760; Antibody Number 760
B14: ADI-41458 (antibody, V domains shown)
VH: EVQLLESGSGLVKPSQTLSLTCAVSGDSLNSALYSWSWIRQPPGKGLEWIGYIYYSGSTYYNSSLKSRVTISIDRSKNQFSLNLNSVTAADTAVYYCASLQTGYSSGWFFDFWGPGTLVTVSS
VL: EIVLTQSPGTLSLSPGERATLSCRASQSVSRTYLTWYQQKPGQAPRLLIYGASNRATGIPDRFSGSGSGTDFTLTISRLEPEDFAVYYCQQYGSTPLFGQGTKVEIK
B15: ADI-41507 (antibody, V domains shown)
VH: QVTLKESGPTLVKPTQTLRLTCTFSGFSLNVISGVGVGWIRQPPGKALEWLALIYWDDDKRYSPSLKSRLTIAKDTSKNQVVLTMTNMDPVDTATYYCAHKGGSIEAAVGFDYWGQGTLVTVSS
VL: QSVLTQPPSVSGAPGQRVIISCTGSSSNIGAGFAVHWYQQLPGTAPKLLIYANTNRPSGVPDRFSGSKSGTSASLAITGLQAEDEADYYCQSYDTSLSGFYVFGTGTKLTVL
B16: ADI-41465 (antibody, V domains shown)
VH: QVQLVQSGGGVVQPGRSLRLSCAASGFTFTSYDMHWVRQAPGKGLEWVAIISHDGSKQFYADSVKGRFTISRDNSKNTLYLQMNSLRPEDTAMYYCAKDTPSWGLLAEFFRHWGQGTLVTVSS
VL: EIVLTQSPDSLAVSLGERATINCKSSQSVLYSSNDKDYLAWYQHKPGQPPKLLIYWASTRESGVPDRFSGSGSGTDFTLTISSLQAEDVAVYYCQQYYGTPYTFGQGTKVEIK
B17: ADI-41546 (antibody, V domains shown)
VH: QVQLVQSGAEVKKPGESLKISCKGSGYSFTNYWIGWVRQMPGKGLEWMGIIFSADSDTRYSPSFQGQVTISADKSISTAYLQWSSLKASDTAMYYCARQWGITGDAFDIWGQGTMVTVSS
VL: DIQVTQSPSFLSASVGDRVTITCRASQGISGYLAWYQQKPGKAPKLLIYAASTLQSGVPSRFSGSGSGTEFTLTISSLQPEDFATYYCQQLNSYPYTFGQGTKVEIK

Assays:
[1] = target: RSV F on RSV subtype A virus (RSV-A2) (Respiratory Syncytial Virus, subtype A, …, UniProt P03420 26-574); assay: cell-based or functional assay
[2] = target: RSV postfusion F (postF), F ΔFP trimer, subtype A (Respiratory Syncytial Virus, subtype A, UniProt P03420 26-513); assay: BLI, IgG on anti-human IgG sensors
[3] = target: RSV prefusion F (preF), DS-Cav1 stabilized trimer, subtype A (Respiratory Syncytial Virus, subtype A, UniProt P03420 26-513); assay: BLI, IgG on anti-human IgG sensors, 100 nM antigen, apparent KD
[4] = target: RSV F on RSV-A2 virus (Respiratory Syncytial Virus (RSV-A2), UniProt P03420 26-574); assay: cell-based or functional assay
[5] = target: RSV postfusion F (postF), F ΔFP (Respiratory Syncytial Virus, UniProt P03420 26-513); assay: BLI, IgG on anti-human IgG sensor, 100 nM antigen, 1:1 fit
[6] = target: RSV prefusion F (preF), DS-Cav1 (Respiratory Syncytial Virus, UniProt P03420 26-513); assay: BLI, IgG on anti-human IgG sensor
[7] = target: RSV postfusion F (postF), F ΔFP (Respiratory syncytial virus, UniProt P03420 26-513); assay: BLI, IgG on anti-human IgG sensor, 100 nM antigen
[8] = target: RSV F on RSV-A2 virus (Respiratory syncytial virus, RSV-A2, UniProt P03420 26-574); assay: cell-based or functional assay
[9] = target: RSV prefusion F (preF), DS-Cav1 (Respiratory syncytial virus, UniProt P03420 26-513); assay: BLI, IgG on anti-human IgG sensor

Binder	Neutralization IC50 (RSV subtype A) [1]	binding result [2]	Kd [3]	Neutralization IC50 (RSV subtype A) [4]	Kd [5]	binding result [6]	other results
B1	> 25 µg/mL	no binding (tested: 100 nM antigen)	5.74 nM				
B2	> 25 µg/mL	no binding (tested: 100 nM antigen)	7.09 nM				
B3				> 25 µg/mL	0.605 nM	no binding	
B4				0.46 µg/mL	33.1 nM	no binding	
B5							Kd [7]: 8.78 nM; Neutralization IC50 (RSV subtype A) [8]: > 25 µg/mL; binding result [9]: no binding (tested: 100 nM antigen)
B6				> 25 µg/mL	0.805 nM	no binding	
B7				> 25 µg/mL	0.327 nM	no binding	
B8	> 25 µg/mL	no binding (tested: 100 nM antigen)	37.5 nM				
B9	> 25 µg/mL	no binding (tested: 100 nM antigen)	43.2 nM				
B10	> 25 µg/mL	no binding (tested: 100 nM antigen)	32.1 nM				
B11				> 25 µg/mL	1.54 nM	no binding	
B12	> 25 µg/mL	no binding (tested: 100 nM antigen)	7.88 nM				
B13				> 25 µg/mL	0.505 nM	no binding	
B14				> 25 µg/mL	0.549 nM	no binding	
B15				> 25 µg/mL	140 nM	no binding	
B16				> 25 µg/mL	1.73 nM	no binding	
B17				> 25 µg/mL	1.08 nM	no binding	
